Results reported in patent publication US20170247476A1 (Amgen, published 2017).

B1: CD3ε(1-27)-MMP-2csV1-aCD3-aHER2-Xbody, digested with MMP-2 (bispecific antibody)
chain 1: not shown
chain 2: IAGQEVQLVESGGGLVQPGGSLKLSCAASGFTFNSYAMNWVRQAPGKGLEWVARIRSKYNNYATYYADSVKGRFTISRDDSKNTAYLQMNNLKTEDTAVYYCVRHGNFGNSYVSWWAYWGQGTLVTVSSGGGGSGGGGSELVMTQTPSSLSASLGDRVTISCRASQDISNYLNWYQQKPDGTVKLLIYYTSRLHSGVPSRFSGSGSGTDYSLTISNLEQEDIATYFCQQGNTLPLTFGAGTKLEIKASTKGPSVFPLAPCSRSTSESTAALGCLVKDYFPEPVTVSWNSGALTSGVHTFPAVLQSSGLYSLSSVVTVPSSNFGTQTYTCNVDHKPSNTKVDKTVGGGGSAAAEPKSSDKTHTCPPCPAPEAAGGPSVFLFPPKPKDTLMISRTPEVTCVVVDVSHEDPEVKFNWYVDGVEVHNAKTKPREEQYNSTYRVVSVLTVLHQDWLNGKEYKCKVSNKALPAPIEKTISKAKGQPREPQVYTLPPSREEMTKNQVSLTCLVKGFYPSDIAVEWESNGQPENNYDTTPPVLDSDGSFFLYSDLTVDKSRWQQGNVFSCSVMHEALHNHYTQKSLSLSPGK
B2: CD3ε(1-27)-FURINcsV2-aCD3-aHER2-Xbody (bispecific antibody)
chain 1: not shown
chain 2: QDGNEEMGGITQTPYKVSISGTTVILTGGGGSGGGGSGGGGSGQSSRHRRALEVQLVESGGGLVQPGGSLKLSCAASGFTFNSYAMNWVRQAPGKGLEWVARIRSKYNNYATYYADSVKGRFTISRDDSKNTAYLQMNNLKTEDTAVYYCVRHGNFGNSYVSWWAYWGQGTLVTVSSGGGGSGGGGSELVMTQTPSSLSASLGDRVTISCRASQDISNYLNWYQQKPDGTVKLLIYYTSRLHSGVPSRFSGSGSGTDYSLTISNLEQEDIATYFCQQGNTLPLTFGAGTKLEIKASTKGPSVFPLAPCSRSTSESTAALGCLVKDYFPEPVTVSWNSGALTSGVHTFPAVLQSSGLYSLSSVVTVPSSNFGTQTYTCNVDHKPSNTKVDKTVGGGGSAAAEPKSSDKTHTCPPCPAPEAAGGPSVFLFPPKPKDTLMISRTPEVTCVVVDVSHEDPEVKFNWYVDGVEVHNAKTKPREEQYNSTYRVVSVLTVLHQDWLNGKEYKCKVSNKALPAPIEKTISKAKGQPREPQVYTLPPSREEMTKNQVSLTCLVKGFYPSDIAVEWESNGQPENNYDTTPPVLDSDGSFFLYSDLTVDKSRWQQGNVFSCSVMHEALHNHYTQKSLSLSPGK
B3: CD3ε(1-27)-FURINcsV1-aCD3-aHER2-Xbody (bispecific antibody)
chain 1: not shown
chain 2: QDGNEEMGGITQTPYKVSISGTTVILTGGGGSGGGGSGGGGSRRRRREVQLVESGGGLVQPGGSLKLSCAASGFTFNSYAMNWVRQAPGKGLEWVARIRSKYNNYATYYADSVKGRFTISRDDSKNTAYLQMNNLKTEDTAVYYCVRHGNFGNSYVSWWAYWGQGTLVTVSSGGGGSGGGGSELVMTQTPSSLSASLGDRVTISCRASQDISNYLNWYQQKPDGTVKLLIYYTSRLHSGVPSRFSGSGSGTDYSLTISNLEQEDIATYFCQQGNTLPLTFGAGTKLEIKASTKGPSVFPLAPCSRSTSESTAALGCLVKDYFPEPVTVSWNSGALTSGVHTFPAVLQSSGLYSLSSVVTVPSSNFGTQTYTCNVDHKPSNTKVDKTVGGGGSAAAEPKSSDKTHTCPPCPAPEAAGGPSVFLFPPKPKDTLMISRTPEVTCVVVDVSHEDPEVKFNWYVDGVEVHNAKTKPREEQYNSTYRVVSVLTVLHQDWLNGKEYKCKVSNKALPAPIEKTISKAKGQPREPQVYTLPPSREEMTKNQVSLTCLVKGFYPSDIAVEWESNGQPENNYDTTPPVLDSDGSFFLYSDLTVDKSRWQQGNVFSCSVMHEALHNHYTQKSLSLSPGK
B4: CD3ε(1-27)-aCD3-aHER2-BiFc (bispecific antibody)
chain 1: not shown
chain 2: QDGNEEMGGITQTPYKVSISGTTVILTGGGGSGGGGSGGGGSAAAEPKSSDKTHTCPPCPAPEAAGGPSVFLFPPKPKDTLMISRTPEVTCVVVDVSHEDPEVKFNWYVDGVEVHNAKTKPREEQYNSTYRVVSVLTVLHQDWLNGKEYKCKVSNKALPAPIEKTISKAKGQPREPQVYTLPPSREEMTKNQVSLTCLVKGFYPSDIAVEWESNGQPENNYDTTPPVLDSDGSFFLYSDLTVDKSRWQQGNVFSCSVMHEALHNHYTQKSLSLSPGK
notes: Non-cleavable linker between the CD3ε(1-27) fragment and the Fc
B5: CD3ε(1-27)-MMP-2cs-aCD3-aHER2-BiFc (bispecific antibody)
chain 1: not shown
chain 2: QDGNEEMGGITQTPYKVSISGTTVILTGPLGIAGQAAAEPKSSDKTHTCPPCPAPEAAGGPSVFLFPPKPKDTLMISRTPEVTCVVVDVSHEDPEVKFNWYVDGVEVHNAKTKPREEQYNSTYRVVSVLTVLHQDWLNGKEYKCKVSNKALPAPIEKTISKAKGQPREPQVYTLPPSREEMTKNQVSLTCLVKGFYPSDIAVEWESNGQPENNYDTTPPVLDSDGSFFLYSDLTVDKSRWQQGNVFSCSVMHEALHNHYTQKSLSLSPGK
notes: Tested undigested, with the MMP2 cleavage site intact; also called CD3ε(1-27)-MMP-cs-aCD3-aHER2-BiFc
B6: CD3ε(1-27)-MMP-2csV1-aCD3-aHER2-Xbody (bispecific antibody)
chain 1: not shown
chain 2: QDGNEEMGGITQTPYKVSISGTTVILTGGGGSGGGGSGGGGSGPLGIAGQEVQLVESGGGLVQPGGSLKLSCAASGFTFNSYAMNWVRQAPGKGLEWVARIRSKYNNYATYYADSVKGRFTISRDDSKNTAYLQMNNLKTEDTAVYYCVRHGNFGNSYVSWWAYWGQGTLVTVSSGGGGSGGGGSELVMTQTPSSLSASLGDRVTISCRASQDISNYLNWYQQKPDGTVKLLIYYTSRLHSGVPSRFSGSGSGTDYSLTISNLEQEDIATYFCQQGNTLPLTFGAGTKLEIKASTKGPSVFPLAPCSRSTSESTAALGCLVKDYFPEPVTVSWNSGALTSGVHTFPAVLQSSGLYSLSSVVTVPSSNFGTQTYTCNVDHKPSNTKVDKTVGGGGSAAAEPKSSDKTHTCPPCPAPEAAGGPSVFLFPPKPKDTLMISRTPEVTCVVVDVSHEDPEVKFNWYVDGVEVHNAKTKPREEQYNSTYRVVSVLTVLHQDWLNGKEYKCKVSNKALPAPIEKTISKAKGQPREPQVYTLPPSREEMTKNQVSLTCLVKGFYPSDIAVEWESNGQPENNYDTTPPVLDSDGSFFLYSDLTVDKSRWQQGNVFSCSVMHEALHNHYTQKSLSLSPGK

Columns and labels:
HER2 = HER2 (human, UniProt P04626 23-1255); test: cell-based or functional assay
human CD3ε = target: T1, human CD3ε (human, UniProt P07766 22-207); test: FACS on T cells
T1 construct: On T cells CD3ε is part of the TCR-CD3 complex; also called T cells

EC50 Cytolysis (ng/mL), +MMP2; TDCC of SKOV-3 cells with pan T cells (HER2)	EC50 Cytolysis (ng/mL), -MMP2; TDCC of SKOV-3 cells with pan T cells (HER2)	binding result (human CD3ε)	Binder
0.347 ng/mL			B1
0.256 ng/mL	0.112 ng/mL		B2
0.332 ng/mL	0.276 ng/mL		B3
		no binding	B4
		no binding	B5
	4.41 ng/mL		B6
